Test results published in PMC11067747.

Molecular target: recombinant phytoplasmal effector causing phyllody 1 (PHYL1)
Assay: cross-linking; recombinant IMP and PHYL1 mixed at 30 µM each in 1x PBS, 15 min at 20°C, then 1 mM bis(sulfosuccinimidyl)suberate (BS3) for 60 min; SDS-PAGE and Western blot with anti-IMP and anti-PHYL1

“recombinant immunodominant membrane protein (IMP) without the transmembrane domain, amino acids 33-172, from Crotalaria witches' broom phytoplasma (domain or fragment)” showed a stoichiometry N of 1.
